These results are taken from article PMC8568140, “Assembly of infectious Kaposi’s sarcoma-associated herpesvirus progeny requires formation of a pORF19 pentamer” (PLoS Biology, 2021).

Series [1] deals with Baculovirus-produced KSHV capsids lacking the portal protein pORF43, Q2HRA7;Q2HRB6. In words: western blot of gradient-purified capsids (capsid assembly assay in insect cells), band intensity quantified. To be noted: 3 independent biological replicates; capsid loading normalized to pORF25-V5 and pORF26; parent: est. 100; read off a plot. (In general: A western blot detects proteins with antibodies after separation by electrophoresis.)

Series [2] deals with the molecule itself. In words: crystal structure; hanging drop, 18°C, 0.1 M HEPES pH 7.5, 1.69 M lithium acetate (native, P212121, 2.6 Å); selenomethionine derivative in 0.1 M MES pH 7.4, 2 M lithium acetate (P21, P6322).
Series [3] deals with the molecule itself. Description: AUC; sedimentation velocity, 40,000 rpm, 20°C, LiAc buffer with 50 mM HEPES pH 7.5 and 0.5 M lithium acetate; interface mutants at 127 μM, oxidized pORF19_(KCTD)CC at 11 μM.

As for “GFP-tagged wt pORF19 (ORF19-GFP) of KSHV D173A; Q177A”, the percent of parent (% of wt pORF19) in series [1] was 93.
Regarding “GFP-tagged wt pORF19 (ORF19-GFP) of KSHV V463W; L465Y”, in series [1], the percent of parent (% of wt pORF19) was 91.
For the molecule “GFP-tagged wt pORF19 (ORF19-GFP) of KSHV loop (156MNQNQ160 replaced by a flexible linker)”, the percent of parent (% of wt pORF19) in series [1] was 92.

B1: KSHV pORF19 carboxyl-terminal domain (pORF19_(KCTD)) (domain or fragment)
chain: ASHRNFTVAIVPGDPHFSVDRDLRGELMPTLYMNQNQWLPSFGPWFISLTDNAMQRRVFPKELKGTVNFQNSTSLKLISHTLTTVASTTADFFADARHLTDTQAALCLVNAYFCQKTSRQLPATPDDLLADLPQKLDLLITQLKQESGPGDFSFTYSNPQERASLAPLNKESRYPTAFFQRHKLHAMMAKAGLFPHNKGTGAPGTAPAMDLVFAITSAMFGSDIPPFSAYQWNLRAGIVALEVFILAYGLLEFGQVARGHPNRRLNLVSLLGPKFQPGALPDPNAPMLKRGQLFSFISEHYIIPTLQANPNAPVSFIFPGIILAALEARSTVSHKQPGPFVNLTGSRFNEIFEILNQQLTFRDPLALLQARTALRLATEEGLDVLLSHPSPPTLLQEIIKSQFGGGDDYDRAYFMVLGCLPVVLAVV
notes: The His tag was removed with carboxypeptidase after a first SEC; Two of the three crystal forms (P21, P6322) were of a selenomethionine derivative; also called wt pORF19_(KCTD); KSHV pORF19 CTD; source: E. coli Rosetta (DE3), purified (HisTrap, SEC); not shown: His tag, C-terminal, cleaved
With B1, the stoichiometry N (as a rule, the number of molecules, sites or subunits per partner or assembly) in series [2] turned out to be 5.

B2: oxidized pORF19_(KCTD)CC (KSHV pORF19 CTD with P137C and P461C) (domain or fragment)
chain: ASHRNFTVAIVPGDCHFSVDRDLRGELMPTLYMNQNQWLPSFGPWFISLTDNAMQRRVFPKELKGTVNFQNSTSLKLISHTLTTVASTTADFFADARHLTDTQAALCLVNAYFCQKTSRQLPATPDDLLADLPQKLDLLITQLKQESGPGDFSFTYSNPQERASLAPLNKESRYPTAFFQRHKLHAMMAKAGLFPHNKGTGAPGTAPAMDLVFAITSAMFGSDIPPFSAYQWNLRAGIVALEVFILAYGLLEFGQVARGHPNRRLNLVSLLGPKFQPGALPDPNAPMLKRGQLFSFISEHYIIPTLQANPNAPVSFIFPGIILAALEARSTVSHKQPGCFVNLTGSRFNEIFEILNQQLTFRDPLALLQARTALRLATEEGLDVLLSHPSPPTLLQEIIKSQFGGGDDYDRAYFMVLGCLPVVLAVV
modifications: engineered inter-protomeric disulfide bond between the cysteines introduced at 137 and 461 (oxidized form)
notes: pORF19 of Kaposi's sarcoma-associated herpesvirus, residues 123 to 549, with two prolines changed to cysteines; The protomers of the oxidized form are covalently linked by the engineered disulfide bond; also called pentameric pORF19KCTDCC; source: E. coli Rosetta (DE3), purified as pORF19_(KCTD); oxidized with 2 mM GSSG in 0.5 M lithium acetate, then SEC (Superose 6 Increase); not shown: His tag, …
With B2, the “stoichiometry N” value in series [3] was determined as 5.
